Test results as given in the supplement of paper PMC7125110.
± gives the standard error. Variants at the floor of the assay were thinned out.

B1: glmS ribozyme (parent)
chain: AUAAAAGCGCCAGAACUACAGAAAUGUAGUUGACGAGGAGGAGGUUUAUCGAAUUUUCGGCGGAUGCCUCCAAA

Variants of: B1
Assay: self-cleavage kobs at 10000 uM GlcN6P; higher = faster cleavage; RNA array
Settings: with glucosamine-6-phosphate
In short: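 A hybridised Cy3 probe tracked barcoded ribozyme variants, transcribed in situ by E. coli RNA polymerase on sequenced MiSeq chips, at 37 °C. The variants received 40 μM to 10 mM glucosamine-6-phosphate in HEPES/KCl/Mg(OAc)2 buffer. kobs came from decay fits and kcat and KM from weighted Michaelis–Menten fits.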

C10A G32A G60C G63A and G7A G35A A36G cannot be ordered by “self-cleavage kobs at 10000 uM GlcN6P” value: less than 1e-05 s⁻¹ for the first, less than 1e-05 s⁻¹ for the second.

Compared with A39U U65A, G41C G66C C68A is lower in “self-cleavage kobs at 10000 uM GlcN6P” value: 0.00166 ± 0.00039 s⁻¹ for the first, less than 1e-05 s⁻¹ for the second.

Going from G13U C61G C68G to C16G G29A G32A, the “self-cleavage kobs at 10000 uM GlcN6P” value rises from less than 1e-05 s⁻¹ to 0.00144 ± 0.00032 s⁻¹.

First: G9C U46G A53U U55G
Second: A12U G13U G29C
The “self-cleavage kobs at 10000 uM GlcN6P” value of the first is lower: less than 1e-05 s⁻¹ for the first, 3.79e-05 ± 1.5e-05 s⁻¹ for the second.

Compared with A39G A52C, A48C G62U C67U C71G is lower in “self-cleavage kobs at 10000 uM GlcN6P” value: 2.99e-05 ± 1.2e-05 s⁻¹ for the first, less than 1e-05 s⁻¹ for the second.

A52U C58G U65G and C34U G40U A42U cannot be ordered by “self-cleavage kobs at 10000 uM GlcN6P” value: less than 1e-05 s⁻¹ for the first, less than 1e-05 s⁻¹ for the second.

Going from U45C U65G C67A to A12C C61U G66U, the “self-cleavage kobs at 10000 uM GlcN6P” value falls from 0.000786 ± 0.00016 s⁻¹ to less than 1e-05 s⁻¹.

Compared with A42G G59U, G9A A53C G62A C70G is lower in “self-cleavage kobs at 10000 uM GlcN6P” value: 4.33e-05 ± 9.8e-06 s⁻¹ for the first, less than 1e-05 s⁻¹ for the second.

U30C U46C G59U and A6U G7C A14G U57C cannot be ordered by “self-cleavage kobs at 10000 uM GlcN6P” value: less than 1e-05 s⁻¹ for the first, less than 1e-05 s⁻¹ for the second.

A39C G44C G60U and C8G G40C G59C C67G C71U cannot be ordered by “self-cleavage kobs at 10000 uM GlcN6P” value: less than 1e-05 s⁻¹ for the first, less than 1e-05 s⁻¹ for the second.

Going from G29C A52U A53C C68G to A12U A15G U46G, the “self-cleavage kobs at 10000 uM GlcN6P” value rises from less than 1e-05 s⁻¹ to 0.00932 ± 0.0019 s⁻¹.

Compared with G35C A42C C70U, A33G C34U C50G C67U is higher in “self-cleavage kobs at 10000 uM GlcN6P” value: less than 1e-05 s⁻¹ for the first, 0.000194 ± 3.6e-05 s⁻¹ for the second.

G7A C11G A14C A48G A64G and G29A G43U G51A cannot be ordered by “self-cleavage kobs at 10000 uM GlcN6P” value: less than 1e-05 s⁻¹ for the first, less than 1e-05 s⁻¹ for the second.

U30A G44A C68G and G35C A39U G41C C61A cannot be ordered by “self-cleavage kobs at 10000 uM GlcN6P” value: less than 1e-05 s⁻¹ for the first, less than 1e-05 s⁻¹ for the second.

First: U31A A36C
Second: U31C U47G C70G
The “self-cleavage kobs at 10000 uM GlcN6P” value of the first is lower: less than 1e-05 s⁻¹ for the first, 4.82e-05 ± 1.5e-05 s⁻¹ for the second.

Going from A12C A15U A52G to G13U C50G C70U, the “self-cleavage kobs at 10000 uM GlcN6P” value falls from 0.000174 ± 3.6e-05 s⁻¹ to 5.49e-05 ± 1.2e-05 s⁻¹ (3.2-fold).

Going from G7A A14G A39G C71U to C8G U45G U55C C71A, the “self-cleavage kobs at 10000 uM GlcN6P” value falls from 5.55e-05 ± 1.7e-05 s⁻¹ to less than 1e-05 s⁻¹.

G37A G38A A42C G59U and A6C G29A C34U G43U G44U cannot be ordered by “self-cleavage kobs at 10000 uM GlcN6P” value: less than 1e-05 s⁻¹ for the first, less than 1e-05 s⁻¹ for the second.

A39C G51C G59C and C8A G9A C10U A33G A36G A39U U47C C58A cannot be ordered by “self-cleavage kobs at 10000 uM GlcN6P” value: less than 1e-05 s⁻¹ for the first, less than 1e-05 s⁻¹ for the second.

Compared with A6U G7U G13U U31C, G7A U55A G66A C67U U69G is higher in “self-cleavage kobs at 10000 uM GlcN6P” value: less than 1e-05 s⁻¹ for the first, 0.000476 ± 0.00013 s⁻¹ for the second.

G40A U69C and C10A G29U U55G C68G are within error of each other in “self-cleavage kobs at 10000 uM GlcN6P” value: 5.59e-05 ± 1.9e-05 s⁻¹ for the first, 3.81e-05 ± 1.8e-05 s⁻¹ for the second.

A12U U30G A36U G41U A52U and G7C C68A C71A cannot be ordered by “self-cleavage kobs at 10000 uM GlcN6P” value: less than 1e-05 s⁻¹ for the first, less than 1e-05 s⁻¹ for the second.

A12G A36U A48C A53C G66A C70G and G29C A36C cannot be ordered by “self-cleavage kobs at 10000 uM GlcN6P” value: less than 1e-05 s⁻¹ for the first, less than 1e-05 s⁻¹ for the second.

Going from A42C C61U C68U to C11U C50G C70G, the “self-cleavage kobs at 10000 uM GlcN6P” value rises from less than 1e-05 s⁻¹ to 3.88e-05 ± 1.4e-05 s⁻¹.

G41U G51U A53C and A6C U49A cannot be ordered by “self-cleavage kobs at 10000 uM GlcN6P” value: less than 1e-05 s⁻¹ for the first, less than 1e-05 s⁻¹ for the second.

Going from A15G U56G C68G to C11U A53G G60A, the “self-cleavage kobs at 10000 uM GlcN6P” value falls from 6.13e-05 ± 1.3e-05 s⁻¹ to less than 1e-05 s⁻¹.

Compared with G40A U45A G66A, U57C G62U is lower in “self-cleavage kobs at 10000 uM GlcN6P” value: 0.00649 ± 0.0018 s⁻¹ for the first, less than 1e-05 s⁻¹ for the second.

G43U G59C C68A and U30C G41A U54C cannot be ordered by “self-cleavage kobs at 10000 uM GlcN6P” value: less than 1e-05 s⁻¹ for the first, less than 1e-05 s⁻¹ for the second.
